Results on one protein are retold here after doi:10.1101/2021.05.24.445519 (bioRxiv, 2021).

The series concerns the molecule itself. The series can be described thus: crystal structure.

B1: alanine:glyoxylate aminotransferase 1, minor allele (AGT-Mi), purified recombinant (enzyme, human)
chain: MASHKLLVTPLKALLKPLSIPNQLLLGPGPSNLPPRIMAAGGLQMIGSMSKDMYQIMDEIKEGIQYVFQTRNPLTLVISGSGHCALEAALVNVLEPGDSFLVGANGIWGQRAVDIGERIGARVHPMTKDPGGHYTLQEVEEGLAQHKPVLLFLTHGESSTGVLQPLDGFGELCHRYKCLLLVDSVASLGGTPLYMDRQGIDILYSGSQKALNAPPGTSLISFSDKAKKKMYSRKTKPFSFYLDIKWLANFWGCDDQPRMYHHTIPVISLYSLRESLALIAEQGLENSWRQHREAAAYLHGRLQALGLQLFVKDPALRLPTVTTVAVPAGYDWRDIVSYVMDHFDIEIMGGLGPSTGKVLRIGLLGCNATRENVDRVTEALRAALQHCPKKKL
In the case of B1, the binding result was “binds”.
